Experimental findings from patent US20070066522A1 (MICHIGAN STATE UNIVERSITY, published 2007) are described below.

The assay has as its target T1, c-Cbl (endogenous, in PH3MT cell lysates) (human, UniProt P22681 1-906).
T1 construct: also called c-Cbl E3 ubiquitin ligase; CB1
Put plainly: method not described; Ras-transformed cells.

B1: Sprouty2 (endogenous, in PH3MT human fibroblast lysates) (other)
chain: MEARAQSGNGSQPLLQTPRDGGRQRGEPDPRDALTQQVHVLSLDQIRAIRNTNEYTEGPTVVPRPGLKPAPRPSTQHKHERLHGLPEHRQPPRLQHSQVHSSARAPLSRSISTVSSGSRSSTRTSTSSSSSEQRLLGSSFSSGPVADGIIRVQPKSELKPGELKPLSKEDLGLHAYRCEDCGKCKCKECTYPRPLPSDWICDKQCLCSAQNVIDYGTCVCCVKGLFYHCSNDDEDNCADNPCSCSQSHCCTRWSAMGVMSLFLPCLWCYLPAKGCLKLCQGCYDRVNRPGCRCKNSNTVCCKVPTVPPRNFEKPT
notes: Endogenous protein of the H-Ras-transformed human fibroblast strain PH3MT; also called Spry2; human Sprouty-2
In the case of B1, the binding result is “binds”.
